Results on 2 molecules are retold here after US20250277059A1, “ANTIBODY USED TO TREAT CORONAVIRUS INFECTION” (priority 2022, published 2025).

In general, Kd refers to the free concentration of one partner at which half of the binding sites on the other are occupied at equilibrium, for simple one-to-one binding. In general, koff refers to a measure of how fast the partners let go of each other. As usually defined, the kon is the second-order rate constant of association.

In assay [1] the test system is pseudo-typed virus having S protein of SARS-COV-2 (WT) derived from Wuhan. The assay is classed as cell-based.
Assay [2] deals with T1, TMPRSS-11E (human, UniProt Q9UL52).
T1 sequence (single chain, looked up): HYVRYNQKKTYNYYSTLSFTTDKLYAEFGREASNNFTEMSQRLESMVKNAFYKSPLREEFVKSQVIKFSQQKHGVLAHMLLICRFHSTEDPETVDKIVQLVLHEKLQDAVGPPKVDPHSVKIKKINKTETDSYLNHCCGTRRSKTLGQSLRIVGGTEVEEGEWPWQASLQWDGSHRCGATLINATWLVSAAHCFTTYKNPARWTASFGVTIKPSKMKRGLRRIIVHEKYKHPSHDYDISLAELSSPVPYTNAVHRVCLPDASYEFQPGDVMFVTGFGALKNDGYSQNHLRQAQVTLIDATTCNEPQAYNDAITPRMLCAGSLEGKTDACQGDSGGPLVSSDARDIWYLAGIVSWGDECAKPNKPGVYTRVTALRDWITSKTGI
Kind of assay: ELISA, Strep-tagged protein on streptavidin plate. (An ELISA detects its analyte on a solid surface through an enzyme-linked reagent.)

Assay [3] has as its target T2, TMPRSS-13 (human, UniProt Q9BYE2).
T2 sequence (single chain, looked up): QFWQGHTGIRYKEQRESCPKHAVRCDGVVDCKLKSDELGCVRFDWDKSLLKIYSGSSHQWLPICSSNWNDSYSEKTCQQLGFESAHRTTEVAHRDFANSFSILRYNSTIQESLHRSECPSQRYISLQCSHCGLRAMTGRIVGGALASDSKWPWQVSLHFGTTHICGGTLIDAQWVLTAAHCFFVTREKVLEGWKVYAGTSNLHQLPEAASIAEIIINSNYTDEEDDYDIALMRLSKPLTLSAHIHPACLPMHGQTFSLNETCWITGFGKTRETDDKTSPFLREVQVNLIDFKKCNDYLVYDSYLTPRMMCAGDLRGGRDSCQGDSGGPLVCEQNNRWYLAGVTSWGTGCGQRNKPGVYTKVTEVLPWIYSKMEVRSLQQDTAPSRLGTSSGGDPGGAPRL
The assay is described as follows: ELISA, Strep-tagged protein on streptavidin plate.

For assay [4], the target named is T3, TMPRSS-11D (human, UniProt O60235).
T3 sequence (single chain, looked up): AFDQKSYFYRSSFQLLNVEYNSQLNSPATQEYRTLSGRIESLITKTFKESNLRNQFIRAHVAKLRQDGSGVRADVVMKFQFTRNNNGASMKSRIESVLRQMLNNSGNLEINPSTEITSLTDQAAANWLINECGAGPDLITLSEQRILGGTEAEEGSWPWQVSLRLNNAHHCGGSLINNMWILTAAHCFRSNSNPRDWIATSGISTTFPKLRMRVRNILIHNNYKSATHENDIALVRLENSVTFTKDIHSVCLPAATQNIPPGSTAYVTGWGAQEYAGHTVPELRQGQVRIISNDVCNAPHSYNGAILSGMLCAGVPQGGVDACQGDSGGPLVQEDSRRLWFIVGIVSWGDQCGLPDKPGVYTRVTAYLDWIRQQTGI
Kind of assay: ELISA, Strep-tagged protein on streptavidin plate.

Assay [5] addresses TMPRSS-11F (human, UniProt Q6ZWK6). Kind of assay: ELISA, Strep-tagged protein on streptavidin plate.
Assay [6] concerns the target T4, Human TMPRSS2 expressed on cells (human, UniProt O15393 1-492). The assay is described as follows: cell-based or functional assay.
The target of assay [7] is T4, Human TMPRSS2 expressed on cells. Kind of assay: flow cytometry, COS7 transfectant. In general terms: A flow cytometer gives signals particle by particle.
For assay [8], the target named is T5, F321A (human, UniProt O15393).
T5 construct: expressed on COS7 cells with GFP via IRES; also called TMPRSS2 alanine substitution F321A; RQSFMA
Kind of assay: flow cytometry, COS7 transfectant.

The target of assay [9] is T6, Human TMPRSS2 recombinant protein, extracellular region (N-terminal His tag, C-terminal Strep-tag II) (human, UniProt O15393 106-492).
T6 construct: also called Human TMPRSS2 recombinant proteins; extracellular region of human TMPRSS2
The assay is described as follows: SPR (BIAcore), captured mAb, soluble human TMPRSS2 extracellular region. For orientation: SPR reads the build-up and loss of mass on a sensor chip optically.

Assay [10] has as its target Mouse TMPRSS2 expressed on cells (mouse, UniProt Q9JIQ8 1-490). The assay is described as follows: flow cytometry, Daudi transfectant.
Assay [11] addresses T4, Human TMPRSS2 expressed on cells. Kind of assay: flow cytometry, Daudi transfectant.
Assay [12] shares this target. The assay is described as follows: cell-based or functional assay. The source holds these as a separate data set.
Assay [13] deals with T6, Human TMPRSS2 recombinant protein, …. Kind of assay: SPR (BIAcore); rounded repeat of Table 1.
Assay [14] deals with Cynomolgus monkey TMPRSS2 expressed on cells (cynomolgus monkey). Kind of assay: flow cytometry, Daudi transfectant.

T6 sequence (O15393 other isoform, or with tags, fused parts or gaps limits assumed): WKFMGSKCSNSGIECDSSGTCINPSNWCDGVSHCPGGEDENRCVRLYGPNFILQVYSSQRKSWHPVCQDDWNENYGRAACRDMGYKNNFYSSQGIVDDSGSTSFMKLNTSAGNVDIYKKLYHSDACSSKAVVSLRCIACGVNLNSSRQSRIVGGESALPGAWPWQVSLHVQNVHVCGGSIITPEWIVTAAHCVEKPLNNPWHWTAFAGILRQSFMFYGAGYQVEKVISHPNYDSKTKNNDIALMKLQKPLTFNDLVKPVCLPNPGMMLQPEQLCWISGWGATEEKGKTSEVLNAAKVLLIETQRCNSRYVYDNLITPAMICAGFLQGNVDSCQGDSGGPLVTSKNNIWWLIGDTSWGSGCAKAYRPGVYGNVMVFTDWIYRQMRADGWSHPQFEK
T4 sequence (O15393 whole entry): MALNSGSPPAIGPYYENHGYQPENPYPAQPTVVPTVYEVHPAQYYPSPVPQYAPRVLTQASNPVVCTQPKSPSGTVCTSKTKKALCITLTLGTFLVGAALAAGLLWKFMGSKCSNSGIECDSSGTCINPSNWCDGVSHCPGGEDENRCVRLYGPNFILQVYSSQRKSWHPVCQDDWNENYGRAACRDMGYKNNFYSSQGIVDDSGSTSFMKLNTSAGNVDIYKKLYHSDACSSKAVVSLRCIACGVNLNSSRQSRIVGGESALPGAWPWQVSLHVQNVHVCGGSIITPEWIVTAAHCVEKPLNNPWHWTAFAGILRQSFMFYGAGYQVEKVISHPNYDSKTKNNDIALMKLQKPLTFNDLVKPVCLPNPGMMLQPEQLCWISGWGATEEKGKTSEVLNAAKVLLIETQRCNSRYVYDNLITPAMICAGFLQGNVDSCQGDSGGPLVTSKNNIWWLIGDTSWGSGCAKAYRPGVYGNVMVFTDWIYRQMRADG
T5 sequence (O15393 whole entry F321A): as the sequence (O15393 whole entry) above, with F321A counted along it
TMPRSS-11F, sequence (Q6ZWK6 54-438 limits assumed): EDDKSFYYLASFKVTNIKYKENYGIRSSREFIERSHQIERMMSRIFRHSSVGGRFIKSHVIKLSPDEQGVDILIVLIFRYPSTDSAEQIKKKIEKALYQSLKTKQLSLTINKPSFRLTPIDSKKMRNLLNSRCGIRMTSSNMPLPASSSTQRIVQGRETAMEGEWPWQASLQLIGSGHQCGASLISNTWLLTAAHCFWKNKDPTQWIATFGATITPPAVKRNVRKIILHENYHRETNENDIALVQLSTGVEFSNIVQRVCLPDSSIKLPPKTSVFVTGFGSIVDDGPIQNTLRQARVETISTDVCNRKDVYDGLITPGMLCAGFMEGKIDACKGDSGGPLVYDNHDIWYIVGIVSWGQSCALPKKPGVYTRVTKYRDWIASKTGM
Mouse TMPRSS2 expressed on cells, sequence (Q9JIQ8 whole entry): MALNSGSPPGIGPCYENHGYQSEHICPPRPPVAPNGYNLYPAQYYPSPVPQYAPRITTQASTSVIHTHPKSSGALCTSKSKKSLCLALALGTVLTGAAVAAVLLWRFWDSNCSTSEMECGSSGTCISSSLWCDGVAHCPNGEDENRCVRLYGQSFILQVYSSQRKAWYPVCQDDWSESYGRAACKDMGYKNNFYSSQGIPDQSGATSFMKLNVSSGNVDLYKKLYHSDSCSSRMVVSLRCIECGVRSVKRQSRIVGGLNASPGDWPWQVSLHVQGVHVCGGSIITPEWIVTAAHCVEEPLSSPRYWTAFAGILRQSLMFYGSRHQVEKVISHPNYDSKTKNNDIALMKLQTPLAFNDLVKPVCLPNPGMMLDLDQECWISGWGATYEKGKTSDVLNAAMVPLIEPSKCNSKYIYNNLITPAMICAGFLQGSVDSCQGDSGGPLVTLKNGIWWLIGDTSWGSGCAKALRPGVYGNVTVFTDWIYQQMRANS

As for `N=C(N)c1ccc2cc(OC(=O)c3ccc(N=C(N)N)cc3)ccc2c1` [Nafamostat, nafamostat], the “infection inhibiting effect on WT-type virus” value in assay [1] is reported as “exhibited infection inhibiting effects”.

B1: 1864_10 antibody (antibody, V domains shown)
VH: QVQLQQSGPALVKPGASLKISCEASGYTFTYYSINWVKQRPGQGLEWIGWIFPGSGSTYYNEKFKGKATLTIDKSSSTAYMLLSSLTSEDSAVYFCARSDYGSAYGYFDVWGTGTTVTVSS
VL: DIVLTQSPASLAVSLGQRATISCRASKSVSTSGYSYMHWYQQKPGQPPKLLIYLASNLESGVPARFSGSGSGTDFTLNIHPVEEEDAATYYCQHSRDLPLTFGAGTKLELK
In the case of B1, the binding result in assay [2], in [3], in assay [4] and in assay [5] was “no binding (tested: 10 µg/mL)” in each case. Further, in assay [6], the “IC90, First run; live SARS-CoV-2 infection of Calu-3 cells” value worked out at 0.11 µg/mL. Also, the “IC90, Second run; live SARS-CoV-2 infection of Calu-3 cells” value in assay [6] is 0.16 µg/mL. For the same molecule, the “Q2 (percent of cells GFP+ and stained)” value in assay [7] is 10.5; in assay [8], 7.85; in [10], 98.1; in assay [11] it was 100; in [14], 2.27. In addition, the dissociation constant (Kd) in assay [9] amounted to 5.14 nM; in [13] it was 5.1 nM. In [9], the koff came out at 0.00289 s⁻¹. Further, in [9], the kon came to 563000 M⁻¹ s⁻¹. Also, the “Activity: Calu-3 Inhibiton” value in assay [12] was determined as 67.6.
